In article PMC2946090 (Nature, 2010):

Target: the molecule itself
Experiment: crystal structure

B1: CusA efflux pump (full-length CusA membrane protein with a 6xHis tag at the N-terminus) (natural protein, E. coli, UniProt P38054 1-1047, looked up)
chain: MIEWIIRRSVANRFLVLMGALFLSIWGTWTIINTPVDALPDLSDVQVIIKTSYPGQAPQIVENQVTYPLTTTMLSVPGAKTVRGFSQFGDSYVYVIFEDGTDPYWARSRVLEYLNQVQGKLPAGVSAELGPDATGVGWIYEYALVDRSGKHDLADLRSLQDWFLKYELKTIPDVAEVASVGGVVKEYQVVIDPQRLAQYGISLAEVKSALDASNQEAGGSSIELAEAEYMVRASGYLQTLDDFNHIVLKASENGVPVYLRDVAKVQIGPEMRRGIAELNGEGEVAGGVVILRSGKNAREVIAAVKDKLETLKSSLPEGVEIVTTYDRSQLIDRAIDNLSGKLLEEFIVVAVVCALFLWHVRSALVAIISLPLGLCIAFIVMHFQGLNANIMSLGGIAIAVGAMVDAAIVMIENAHKRLEEWQHQHPDATLDNKTRWQVITDASVEVGPALFISLLIITLSFIPIFTLEGQEGRLFGPLAFTKTYAMAGAALLAIVVIPILMGYWIRGKIPPESSNPLNRFLIRVYHPLLLKVLHWPKTTLLVAALSVLTVLWPLNKVGGEFLPQINEGDLLYMPSTLPGISAAEAASMLQKTDKLIMSVPEVARVFGKTGKAETATDSAPLEMVETTIQLKPQEQWRPGMTMDKIIEELDNTVRLPGLANLWVPPIRNRIDMLSTGIKSPIGIKVSGTVLADIDAMAEQIEEVARTVPGVASALAERLEGGRYINVEINREKAARYGMTVADVQLFVTSAVGGAMVGETVEGIARYPINLRYPQSWRDSPQALRQLPILTPMKQQITLADVADIKVSTGPSMLKTENARPTSWIYIDARDRDMVSVVHDLQKAIAEKVQLKPGTSVAFSGQFELLERANHKLKLMVPMTLMIIFVLLYLAFRRVGEALLIISSVPFALVGGIWLLWWMGFHLSVATGTGFIALAGVAAEFGVVMLMYLRHAIEAVPSLNNPQTFSEQKLDEALYHGAVLRVRPKAMTVAVIIAGLLPILWGTGAGSEVMSRIAAPMIGGMITAPLLSLFIIPAAYKLMWLHRHRVRK
- stoichiometry N: 3
